# Experimental data as given in patent US9580508B2, “Bispecific EGFR/c-Met antibodies” (Janssen Biotech, Inc., priority 2012, dated 2017).
# Changes are numbered by the printed parent chain.
# B1: ECB94: bispecific FN3: P54AR4-83v22-(AP)5-P114AR7P94-A3v22, SEQ ID NO: 61 (protein)
# chain: MLPAPKNLVVSEVTEDSARLSWDDPWAFYESFLIQYQESEKVGEAIVLTVPGSERSYDLTGLKPGTEYTVSIYGVHNVYKDTNIRGLPLSAIFTTAPAPAPAPAPLPAPKNLVVSRVTEDSARLSWTAPDAAFDSFWIRYFEFLGSGEAIVLTVPGSERSYDLTGLKPGTEYVVNILGVKGGKISPPLSAIFTT
# modifications: bispecific EGFR/cMet binding molecule
# B2: ECB95: bispecific FN3: P54AR4-83v22-(AP)5-P114AR9P121-A6v2, SEQ ID NO: 62 (protein)
# chain: B1 chain with L144V, K183S
# modifications: bispecific EGFR/cMet binding molecule
# B3: ECB96: bispecific FN3: P54AR4-83v22-(AP)5-P114AR9P122-A7v2, SEQ ID NO: 63 (protein)
# chain: B1 chain with L144V, G145S, S146K, E148D, K183S
# modifications: bispecific EGFR/cMet binding molecule
# B4: ECB97: bispecific FN3: P54AR4-83v22-(AP)5-P114AR7P95-C5v2, SEQ ID NO: 64 (protein)
# chain: B1 chain with G178S, K183S
# modifications: bispecific EGFR/cMet binding molecule
# B5: ECB106: bispecific FN3: P54AR4-83v23-(AP)5-P114AR7P94-A3v22, SEQ ID NO: 65 (protein)
# chain: B1 chain with W26H
# modifications: bispecific EGFR/cMet binding molecule
# B6: ECB107: bispecific FN3: P54AR4-83v23-(AP)5-P114AR9P121-A6v2, SEQ ID NO: 66 (protein)
# chain: B1 chain with W26H, L144V, K183S
# modifications: bispecific EGFR/cMet binding molecule
# B7: ECB108: bispecific FN3: P54AR4-83v23-(AP)5-P114AR9P122-A7v2, SEQ ID NO: 67 (protein)
# chain: B1 chain with W26H, L144V, G145S, S146K, E148D, K183S
# modifications: bispecific EGFR/cMet binding molecule
# B8: ECB109: bispecific FN3: P54AR4-83v23-(AP)5-P114AR7P95-C5v2, SEQ ID NO: 68 (protein)
# chain: B1 chain with W26H, G178S, K183S
# modifications: bispecific EGFR/cMet binding molecule
# B9: ECB15: bispecific FN3: P54AR4-83v2-(AP)5-P114AR7P94-A3, SEQ ID NO: 57 (protein)
# chain: B1 chain with I84M, L177M
# modifications: bispecific EGFR/cMet binding molecule
# B10: P54AR4-83: EGFR-binding FN3 domain, SEQ ID NO: 25 (protein)
# chain: LPAPKNLVVSEVTEDSLRLSWDDPWAFYESFLIQYQESEKVGEAINLTVPGSERSYDLTGLKPGTEYTVSIYGVHNVYKDTNMRGLPLSAEFTT
# modifications: EGFR binding FN3 domain
# B11: P54CR4-31: EGFR-binding FN3 domain, SEQ ID NO: 26 (protein)
# chain: LPAPKNLVVSEVTEDSLRLSWTAPDAAFDSFLIQYQESEKVGEAINLTVPGSERSYDLTGLKPGTEYTVSIYGVLGSYVFEHDVMLPLSAEFTT
# modifications: EGFR binding FN3 domain
# B12: P54CR4-31v2: stabilized EGFR-binding FN3 domain, SEQ ID NO: 28 (protein)
# chain: B11 chain with L17A, N46V, E91I
# modifications: EGFR binding FN3 domain
# B13: P54AR4-37: EGFR-binding FN3 domain, listed with SEQ ID NO: 22 in Table 6 (protein)
# chain: B10 chain with D22T, D23W, W25Y, F27D, Y28L, E29D
# modifications: EGFR binding FN3 domain
# B14: P54AR4-37v2: stabilized EGFR-binding FN3 domain, SEQ ID NO: 29 (protein)
# chain: B10 chain with D22T, D23W, W25Y, F27D, Y28L, E29D
# modifications: EGFR binding FN3 domain
# B15: P114AR7P92-G8: c-Met-binding FN3 domain, SEQ ID NO: 36 (protein)
# chain: LPAPKNLVVSRVTEDSARLSWTAPDAAFDSFVIRYFEFLGSGEAIVLTVPGSERSYDLTGLKPGTEYVVQILGVKGGYISIPLSAIFTT
# modifications: c-Met binding FN3 domain
# B16: P114AR7P92-H5: c-Met-binding FN3 domain, SEQ ID NO: 37 (protein)
# chain: B15 chain with V32W, F36L, G40L, S41G, L72M, Y78T, I79V, I81P
# modifications: c-Met binding FN3 domain
# B17: P114AR7P93-G8: c-Met-binding FN3 domain, SEQ ID NO: 39 (protein)
# chain: B15 chain with V32W, G60D, V68G, Q70T, L72N, Y78R, I79V, I81T
# modifications: c-Met binding FN3 domain
# B18: P114AR7P93-H9: c-Met-binding FN3 domain, SEQ ID NO: 40 (protein)
# chain: B15 chain with V32W, L72I, Y78H, I81L
# modifications: c-Met binding FN3 domain
# B19: P114AR7P94-A3: c-Met-binding FN3 domain, SEQ ID NO: 41 (protein)
# chain: B15 chain with V32W, Q70N, L72M, Y78K, I81P
# modifications: c-Met binding FN3 domain
# B20: P114AR7P94-E5: c-Met-binding FN3 domain, SEQ ID NO: 42 (protein)
# chain: B15 chain with V32W, V68A, Q70N, L72M, Y78R, I79V, I81V
# modifications: c-Met binding FN3 domain
# B21: P114AR7P95-D4: c-Met-binding FN3 domain, SEQ ID NO: 45 (protein)
# chain: B15 chain with V32W
# modifications: c-Met binding FN3 domain
# B22: P114AR7P95-F10: c-Met-binding FN3 domain, SEQ ID NO: 47 (protein)
# chain: B15 chain with V32W, L39T, G40T, S41A, Q70N, L72M, Y78S, I81P
# modifications: c-Met binding FN3 domain
# B23: P114AR7P95-G7: c-Met-binding FN3 domain, SEQ ID NO: 48 (protein)
# chain: B15 chain with V32W, F38L, G40S, S41T, Q70N, L72M, Y78S, I81P
# modifications: c-Met binding FN3 domain
# B24: P114AR7P95-H8: c-Met-binding FN3 domain, SEQ ID NO: 49 (protein)
# chain: B15 chain with V32W, L39V, G40S, S41K, Q70N, L72M, Y78S, I81P
# modifications: c-Met binding FN3 domain
# B25: P114AR5P74-A5: c-Met-binding FN3 domain, SEQ ID NO: 32 (protein)
# chain: B15 chain with V32W, F36D, F38V, L39V, G40V, S41G, V68Y, Q70N, Y78S, I81V
# modifications: c-Met binding FN3 domain
# B26: P114AR7P92-F6: c-Met-binding FN3 domain, SEQ ID NO: 35 (protein)
# chain: B15 chain with V32W, Q70N, Y78G, I79L, I81V
# modifications: c-Met binding FN3 domain
# Tested on: NCI-H292 cells
# Assay: HGF-induced NCI-H292 cell proliferation
# Type: cell-based, human
# Conditions: read-out: H292-HGF Proliferation inhibition in HGF-induced H292 cells (IC50)
# Excerpt: The proliferation assay was completed using different combinations EGFR and c-Met binding FN3 domains either as a mixture or linked in a bispecific format. […] This confirmed that the avidity effect observed at the level of the receptors (FIG. 4 and FIG. 5) translates into an improvement in inhibiting cell signaling (Table 12) and cell proliferation (Table 13).
# Select bispecific EGFR/c-Met molecules were characterized for their affinity to both EGFR and c-Met, their ability to inhibit EGFR and c-Met autophosphorylation, and their effect on proliferation of HGF cells. Binding affinity of the bispecific EGFR/c-Met molecules to recombinant EGFR and/or c-Met extracellular domain was further evaluated by surface Plasmon resonance methods using a Proteon Instrument (BioRad) according to protocol described in Example 3.
row,Molecule,IC50 [nM]
1,B1,29.6
2,B2,383
3,B3,9480
4,B4,31
5,B5,484
6,B6,2640
7,B7,11400
8,B8,574
9,B9,23

# Tested on: not listed separately
# Assay: Differential scanning calorimetry in PBS (thermal stability)
# Type: physicochemical
# Conditions: DSC in PBS
# Excerpt: A subset of the EGFR binding FN3 domains was engineered to increase the conformational stability of each molecule. […] The new mutants, P54AR5-83v2, P54CR431-v2, and P54AR4-37v2 were expressed and purified as described above. Differential scanning calorimetry in PBS was used to assess the stability of each mutant in order to compare it to that of the corresponding parent molecule.
# Thermal Stability of c-Met-binding FN3 Domains Differential Scanning Calorimetry in PBS was Used to Assess the Stability of Each FN3 Domain.
Molecule,Tm (° C.) [°C],"Thermal Stability (Tm, C.) [C.]"
B10,50.6,
B11,60.9,
B12,78.9,
B13,45.9,
B14,64.2,
B15,,90.9
B16,,87
B17,,76.8
B18,,88.2
B19,,86.2
B20,,80
B21,,85.3
B22,,85.2
B23,,87.2
B24,,83
B25,,74.1
B26,,76.8
